{"source": "patent US20090208522A1", "key": {"[1]": {"biological_target": "GDF8 protein (R&D Systems Inc.) (UniProt O14793)", "experiment": "cell-based or functional assay"}, "[2]": {"biological_target": "Purified CHO-derived FLAG-tagged human GDF8 prohormone (precursor GDF8) (human) (UniProt O14793)", "experiment": "indirect ELISA"}, "[3]": {"biological_target": "TMV-FV7 (DJ5(12)-U1-GPAT coat protein fusion, from pLSB-FV7)", "experiment": "DAS ELISA, PVAS 135D capture"}, "[4]": {"biological_target": "Purified CHO-derived FLAG-tagged human GDF8 prohormone (precursor GDF8) (human) (UniProt O14793)", "experiment": "direct ELISA, response per pmole"}, "[5]": {"biological_target": "TMV-FV7 (DJ5(12)-U1-GPAT coat protein fusion, from pLSB-FV7)", "experiment": "indirect ELISA, endpoint dilution"}, "[6]": {"biological_target": "TMV U1 coat protein / wild-type TMV U1 virus (tobacco mosaic virus, strain U1) (UniProt P69687)", "experiment": "DAS ELISA, virion captured by PVAS-135D"}, "[7]": {"biological_target": "TMV-FV7 (DJ5(12)-U1-GPAT coat protein fusion, from pLSB-FV7)", "experiment": "DAS ELISA, virion captured by PVAS-135D"}, "[8]": {"biological_target": "TMV-FV7 (DJ5(12)-U1-GPAT coat protein fusion, from pLSB-FV7)", "experiment": "DAS ELISA, virion captured by PVAS 135D"}, "[9]": {"biological_target": "TMV U1 coat protein / wild-type TMV U1 virus (tobacco mosaic virus, strain U1) (UniProt P69687)", "experiment": "indirect ELISA, antigen coated at 5 ug/mL"}, "[10]": {"biological_target": "TMV U5 coat protein / TMV U5 virus (tobacco mild green mosaic virus (TMV U5))", "experiment": "indirect ELISA, antigen coated at 5 ug/mL"}, "[11]": {"biological_target": "TMV-FV7 (DJ5(12)-U1-GPAT coat protein fusion, from pLSB-FV7)", "experiment": "indirect ELISA, antigen coated at 5 ug/mL"}, "[12]": {"biological_target": "DJ5 (20) peptide conjugated to BSA (human)", "experiment": "indirect ELISA, conjugate coated at 5 ug/mL"}, "[13]": {"biological_target": "Purified CHO-derived FLAG-tagged human GDF8 prohormone (precursor GDF8) (human) (UniProt O14793)", "experiment": "indirect ELISA, proGDF8FLAG coated at 5 ug/mL"}, "[14]": {"biological_target": "DJ1 peptide (GDF8 active region peptide 267-286) (human)", "experiment": "ELISA, peptide coated 500 ng/well, antibody diluted 1:20"}, "[15]": {"biological_target": "DJ2 peptide (GDF8 active region peptide 282-301) (human)", "experiment": "ELISA, peptide coated 500 ng/well, antibody diluted 1:20"}, "[16]": {"biological_target": "DJ3 peptide (GDF8 active region peptide 297-316) (human)", "experiment": "ELISA, peptide coated 500 ng/well, antibody diluted 1:20"}, "[17]": {"biological_target": "DJ4 peptide (GDF8 active region peptide 312-331) (human)", "experiment": "ELISA, peptide coated 500 ng/well, antibody diluted 1:20"}, "[18]": {"biological_target": "DJ5 peptide (GDF8 active region peptide 327-346) (human)", "experiment": "ELISA, peptide coated 500 ng/well, antibody diluted 1:20"}, "[19]": {"biological_target": "DJ6 peptide (GDF8 active region peptide 342-361) (human)", "experiment": "ELISA, peptide coated 500 ng/well, antibody diluted 1:20"}, "[20]": {"biological_target": "DJ7 peptide (GDF8 active region peptide 357-375) (human)", "experiment": "ELISA, peptide coated 500 ng/well, antibody diluted 1:20"}, "[21]": {"biological_target": "DJ1 peptide (GDF8 active region peptide 267-286) (human)", "experiment": "ELISA, peptide coated 500 ng/well, antibody diluted 1:40"}, "[22]": {"biological_target": "DJ2 peptide (GDF8 active region peptide 282-301) (human)", "experiment": "ELISA, peptide coated 500 ng/well, antibody diluted 1:40"}, "[23]": {"biological_target": "DJ3 peptide (GDF8 active region peptide 297-316) (human)", "experiment": "ELISA, peptide coated 500 ng/well, antibody diluted 1:40"}, "[24]": {"biological_target": "DJ4 peptide (GDF8 active region peptide 312-331) (human)", "experiment": "ELISA, peptide coated 500 ng/well, antibody diluted 1:40"}, "[25]": {"biological_target": "DJ5 peptide (GDF8 active region peptide 327-346) (human)", "experiment": "ELISA, peptide coated 500 ng/well, antibody diluted 1:40"}, "[26]": {"biological_target": "DJ6 peptide (GDF8 active region peptide 342-361) (human)", "experiment": "ELISA, peptide coated 500 ng/well, antibody diluted 1:40"}, "[27]": {"biological_target": "DJ7 peptide (GDF8 active region peptide 357-375) (human)", "experiment": "ELISA, peptide coated 500 ng/well, antibody diluted 1:40"}, "[28]": {"biological_target": "DJ1 peptide (GDF8 active region peptide 267-286) (human)", "experiment": "ELISA, peptide coated 500 ng/well, antibody diluted 1:80"}, "[29]": {"biological_target": "DJ2 peptide (GDF8 active region peptide 282-301) (human)", "experiment": "ELISA, peptide coated 500 ng/well, antibody diluted 1:80"}, "[30]": {"biological_target": "DJ3 peptide (GDF8 active region peptide 297-316) (human)", "experiment": "ELISA, peptide coated 500 ng/well, antibody diluted 1:80"}, "[31]": {"biological_target": "DJ4 peptide (GDF8 active region peptide 312-331) (human)", "experiment": "ELISA, peptide coated 500 ng/well, antibody diluted 1:80"}, "[32]": {"biological_target": "DJ5 peptide (GDF8 active region peptide 327-346) (human)", "experiment": "ELISA, peptide coated 500 ng/well, antibody diluted 1:80"}, "[33]": {"biological_target": "DJ6 peptide (GDF8 active region peptide 342-361) (human)", "experiment": "ELISA, peptide coated 500 ng/well, antibody diluted 1:80"}, "[34]": {"biological_target": "DJ7 peptide (GDF8 active region peptide 357-375) (human)", "experiment": "ELISA, peptide coated 500 ng/well, antibody diluted 1:80"}, "[35]": {"biological_target": "Purified CHO-derived FLAG-tagged human GDF8 prohormone (precursor GDF8) (human) (UniProt O14793)", "experiment": "ELISA, prohormone coated 250 ng/well, antibody diluted 1:20"}, "[36]": {"biological_target": "Purified CHO-derived FLAG-tagged human GDF8 prohormone (precursor GDF8) (human) (UniProt O14793)", "experiment": "ELISA, prohormone coated 250 ng/well, antibody diluted 1:40"}, "[37]": {"biological_target": "Purified CHO-derived FLAG-tagged human GDF8 prohormone (precursor GDF8) (human) (UniProt O14793)", "experiment": "ELISA, prohormone coated 250 ng/well, antibody diluted 1:80"}}, "note": "“And” between values parts separate entries of the source, which are not always exact repeats. Identical values can stand only once."}
{"substance": "Normal goat IgG (purified from non-immunized goat sera, commercially purchased) (antibody)", "values": [{"measurement": "% Inhibition of GDF8 Activity (in vitro transcriptional activation assay), 250 ug IgG", "setting": "[1]", "result": 7, "unit": "%"}, {"measurement": "% Inhibition of GDF8 Activity (in vitro transcriptional activation assay, A204 cells, luciferase reporter), 250 ug IgG", "setting": "[1]", "result": 0, "unit": "%"}]}
{"substance": "Rat monoclonal antibody MAB788 (R&D Systems, anti-mouse GDF8)", "values": [{"measurement": "endpoint dilution higher than for DJ5(20) BSA (log10)", "setting": "[2]", "result": 2}, {"measurement": "% Inhibition of GDF8 Activity (in vitro transcriptional activation assay), 0.1 ug IgG", "setting": "[1]", "result": 0, "unit": "%"}, {"measurement": "% Inhibition of GDF8 Activity (in vitro transcriptional activation assay), 1.8 ug IgG", "setting": "[1]", "result": 0, "unit": "%"}, {"measurement": "% Inhibition of GDF8 Activity (in vitro transcriptional activation assay), 3.1 ug IgG", "setting": "[1]", "result": 7, "unit": "%"}, {"measurement": "% Inhibition of GDF8 Activity (in vitro transcriptional activation assay), 6.3 ug IgG", "setting": "[1]", "result": 17, "unit": "%"}, {"measurement": "% Inhibition of GDF8 Activity (in vitro transcriptional activation assay), 12.5 ug IgG", "setting": "[1]", "result": 47, "unit": "%"}, {"measurement": "fold lower endpoint dilution than for the GDF8 prohormone", "setting": "[3]", "result": 3, "unit": "fold"}, {"measurement": "fold higher response than to TMV-FV6 and TMV-FV7", "setting": "[4]", "result": "2 fold and 3 fold"}, {"measurement": "fold higher response than against the U1 coat protein", "setting": "[5]", "result": 3, "unit": "fold"}, {"measurement": "endpoint dilution (reciprocal dilution)", "setting": "[6]", "result": 180}, {"measurement": "endpoint dilution (reciprocal dilution)", "setting": "[7]", "result": 14600}, {"measurement": "endpoint dilution (reciprocal dilution)", "setting": "[8]", "result": 7290}, {"measurement": "endpoint dilution (reciprocal dilution)", "setting": "[9]", "result": 1620}, {"measurement": "endpoint dilution (reciprocal dilution)", "setting": "[10]", "result": "< 20"}, {"measurement": "endpoint dilution (reciprocal dilution)", "setting": "[11]", "result": 4860}, {"measurement": "endpoint dilution (reciprocal dilution)", "setting": "[12]", "result": 270}, {"measurement": "endpoint dilution (reciprocal dilution)", "setting": "[13]", "result": 21900}, {"measurement": "ELISA reactivity (OD 405/minute x 1000) (OD405/min x 1000)", "setting": "[14]", "result": 4}, {"measurement": "ELISA reactivity (OD 405/minute x 1000) (OD405/min x 1000)", "setting": "[15]", "result": 0}, {"measurement": "ELISA reactivity (OD 405/minute x 1000) (OD405/min x 1000)", "setting": "[16]", "result": 0}, {"measurement": "ELISA reactivity (OD 405/minute x 1000) (OD405/min x 1000)", "setting": "[17]", "result": 0}, {"measurement": "ELISA reactivity (OD 405/minute x 1000) (OD405/min x 1000)", "setting": "[18]", "result": 133}, {"measurement": "ELISA reactivity (OD 405/minute x 1000) (OD405/min x 1000)", "setting": "[19]", "result": 0}, {"measurement": "ELISA reactivity (OD 405/minute x 1000) (OD405/min x 1000)", "setting": "[20]", "result": 0}, {"measurement": "ELISA reactivity (OD 405/minute x 1000) (OD405/min x 1000)", "setting": "[21]", "result": 0}, {"measurement": "ELISA reactivity (OD 405/minute x 1000) (OD405/min x 1000)", "setting": "[22]", "result": 0}, {"measurement": "ELISA reactivity (OD 405/minute x 1000) (OD405/min x 1000)", "setting": "[23]", "result": 0}, {"measurement": "ELISA reactivity (OD 405/minute x 1000) (OD405/min x 1000)", "setting": "[24]", "result": 0}, {"measurement": "ELISA reactivity (OD 405/minute x 1000) (OD405/min x 1000)", "setting": "[25]", "result": 118}, {"measurement": "ELISA reactivity (OD 405/minute x 1000) (OD405/min x 1000)", "setting": "[26]", "result": 0}, {"measurement": "ELISA reactivity (OD 405/minute x 1000) (OD405/min x 1000)", "setting": "[27]", "result": 0}, {"measurement": "ELISA reactivity (OD 405/minute x 1000) (OD405/min x 1000)", "setting": "[28]", "result": 0}, {"measurement": "ELISA reactivity (OD 405/minute x 1000) (OD405/min x 1000)", "setting": "[29]", "result": 0}, {"measurement": "ELISA reactivity (OD 405/minute x 1000) (OD405/min x 1000)", "setting": "[30]", "result": 0}, {"measurement": "ELISA reactivity (OD 405/minute x 1000) (OD405/min x 1000)", "setting": "[31]", "result": 0}, {"measurement": "ELISA reactivity (OD 405/minute x 1000) (OD405/min x 1000)", "setting": "[32]", "result": 102}, {"measurement": "ELISA reactivity (OD 405/minute x 1000) (OD405/min x 1000)", "setting": "[33]", "result": 0}, {"measurement": "ELISA reactivity (OD 405/minute x 1000) (OD405/min x 1000)", "setting": "[34]", "result": 0}, {"measurement": "ELISA reactivity (OD 405/minute x 1000) (OD405/min x 1000)", "setting": "[35]", "result": 132}, {"measurement": "ELISA reactivity (OD 405/minute x 1000) (OD405/min x 1000)", "setting": "[36]", "result": 127}, {"measurement": "ELISA reactivity (OD 405/minute x 1000) (OD405/min x 1000)", "setting": "[37]", "result": 132}]}
